From patent publication US10227617B2, “Sequestration of carbon dioxide with hydrogen to useful products” (UNIVERSITY OF GEORGIA RESEARCH FOUNDATION, INC., priority 2012, dated 2019)
Entries after “also recorded” stand apart in the source; their conditions may differ.

Columns and labels:
P. furiosus cultures = assay: Stability of 3-HP added to P. furiosus cultures; assay type: cell-based, Pyrococcus furiosus
[1] = 4-hydroxybutyrate-CoA synthetase assay (DTNB; HPLC confirmation); assay type: biochemical
Experimental: A time point (0 min) was taken before heating.
The soluble, heat-treated lysate was loaded onto the column with binding buffer (50 mM sodium phosphate, 300 mM NaCl, 20 mM imidazole, pH 7.4) and the his-tagged enzyme removed with elution buffer (50 mM sodium phosphate, 300 mM NaCl, 500 mM imidazole, pH 7.4).

[2] = CoA synthetase assay, substrate hexanoic acid; assay type: biochemical; conditions: six carbon hexanoic acid
Experimental: (§1) Two assays were used to measure ligase activity, one spectrophotometric and one using high-performance liquid chromatography (HPLC). A discontinuous assay was used to measure substrate-dependent disappearance of CoA at 75° C. The reaction mixture (600 μl) contained 100 mM MOPS-KOH (pH 7.9), 5 mM MgCl2, 2.5 mM ATP, 0.15 mM CoA, and purified enzyme. At each time point, 80 μl of reaction mixture was added to 80 μl cold 5,5′-dithiobis-(2-nitrobenzoic acid) (DTNB). A time point (0 min) was taken before heating. The reaction mixture was incubated for 2 min at 75° C., followed by addition of substrate. Additional time points were taken at 30, 60, 90, 120, and 180 sec after addition of substrate. Absorbance was measured at 412 nm to determine free CoA concentration, based on the concentration of 2-nitro-5-thiobenzoate dianion (NTB^2−) (ε412=14,150 M^−1 cm^−1) (Hawkins et al., 2011, ACS Catal. 1, 1043-1050, Riddles et al., 1983, Methods in Enzymology 91, 49-60). Enzymes were kinetically characterized by varying the concentration of the […] substrate from 0.05 mM to 12 mM, while the other substrate concentrations were held constant. Measurements for specific activity were taken under saturating substrate concentrations (10 mM). Formation of the CoA ester was also confirmed using HPLC (Waters). […]

[3] = CoA synthetase (acyl-CoA ligase) assay, disappearance of CoA (DTNB), substrate acetate; assay type: biochemical; conditions: saturating substrate concentrations
Experimental: (§2) Two assays were used to measure ligase activity, one spectrophotometric and one using high-performance liquid chromatography (HPLC). A discontinuous assay was used to measure substrate-dependent disappearance of CoA at 75° C. The reaction mixture (600 μl) contained 100 mM MOPS-KOH (pH 7.9), 5 mM MgCl2, 2.5 mM ATP, 0.15 mM CoA, and purified enzyme. At each time point, 80 μl of reaction mixture was added to 80 μl cold 5,5′-dithiobis-(2-nitrobenzoic acid) (DTNB). A time point (0 min) was taken before heating. The reaction mixture was incubated for 2 min at 75° C., followed by addition of substrate. Additional time points were taken at 30, 60, 90, 120, and 180 sec after addition of substrate. Absorbance was measured at 412 nm to determine free CoA concentration, based on the concentration of 2-nitro-5-thiobenzoate dianion (NTB^2−) (ε412=14,150 M^−1 cm^−1) (Hawkins et al., 2011, ACS Catal. 1, 1043-1050, Riddles et al., 1983, Methods in Enzymology 91, 49-60). Enzymes were kinetically characterized by varying the concentration of the acyl-CoA substrate from 0.05 mM to 12 mM, while the other substrate concentrations were held constant. Measurements for specific activity were taken under saturating substrate concentrations (10 mM). Formation of the CoA ester was also confirmed using HPLC (Waters). […]

[4] = CoA synthetase assay (DTNB), substrate propionate; assay type: biochemical; conditions: saturating substrate concentrations
Experimental: as §2

[5] = Ligase activity over a range of short-chain linear organic acids; assay type: biochemical
Experimental: as §1

E9 = biological target: T1, E9 (Metallosphaera sedula, UniProt A4YGN0); assay: NADPH-dependent assay for E9 in cell-free extracts; assay type: biochemical
T1 construct: expressed in transfected cells; host or cells: Pyrococcus furiosus strain MW43 (SP2B operon integrated at genome region 2); cell-free extract
T1 sequence (A4YGN0 1-360): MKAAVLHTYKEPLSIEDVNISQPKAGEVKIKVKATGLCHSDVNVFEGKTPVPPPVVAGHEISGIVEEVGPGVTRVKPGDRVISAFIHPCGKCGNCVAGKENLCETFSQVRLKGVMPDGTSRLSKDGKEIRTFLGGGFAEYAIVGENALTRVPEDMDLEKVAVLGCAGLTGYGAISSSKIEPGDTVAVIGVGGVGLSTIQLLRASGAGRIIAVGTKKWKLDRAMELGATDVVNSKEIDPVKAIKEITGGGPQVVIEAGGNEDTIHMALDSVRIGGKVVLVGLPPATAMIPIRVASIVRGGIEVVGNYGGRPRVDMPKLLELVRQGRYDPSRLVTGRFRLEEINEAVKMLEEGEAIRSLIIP
Experimental: NADPH-dependent assay for E9 of the SP2B subpathway (FIG. 36). Assays were carried out in sealed anaerobic cuvettes at 75° C. containing 100 mM MOPS pH 7.5 (measured at room temperature), 5 mM MgCl2, 5 mM DTT, 1 mM NADPH and the cell-free extract of P. furiosus (0.25 mg/ml). After addition of 1 mM succinic semialdehyde, NADPH oxidation was determined by the absorbance at 340 nm and rates were calculated based on the difference before and after the addition of the succinic semialdehyde.

O=C(O)CCO [3-HP, 3-hydroxypropionic acid]
stability when added to P. furiosus cultures (P. furiosus cultures): stable

B1: Msed_0394: recombinant M. sedula enzyme with 4-hydroxybutyrate:CoA ligase activity, annotated AMP-dependent synthetase and ligase, SEQ ID NO:13 (protein, listed as Metallosphaera sedula)
chain: MGGFKIPNYEGVDPTGSWYSVLTPLLFLERAGKYFKDKTAVVYRDSRYTYSTFYDNVMVQASALMRRGFSREDKLSFISRNRPEFLESFFGVPYAGGVLVPINFRLSPKEMAYIINHSDSKFVVVDEPYLNSLLEVKDQIKAEIILLEDPDNPSASETARKEVRMTYRELVKGGSRDPLPIPAKEEYSMITLYYTSGTTGLPKGVMHHHRGAFLNAMAEVLEHQMDLNSVYLWTLPMFHAASWGFSWATVAVGATNVCLDKVDYPLIYRLVEKERVTHMCAAPTVYVNLADYMKRNNLKFSNRVHMLVAGAAPAPATLKAMQEIGGYMCHVYGLTETYGPHSICEWRREWDSLPLEEQAKLKARQGIPYVSFEMDVFDANGKPVPWDGKTIGEVVMRGHNVALGYYKNPEKTAESFRDGWFHSGDAAVVHPDGYIEIVDRFKDLINTGGEKVSSILVEKTLMEIPGVKAVAVYGTPDEKWGEVVTARIELQEGVKLTEEEVIKFCKERLAHFECPKIVEFGPIPMTATGKMQKYVLRNEAKAKANKEKS
production of 4HB-CoA from 4HB and CoA ([1]; reversed-phase HPLC): confirmed
rate of ligation of CoA to 4HB ([1]; substrate 4HB): 0.22 µmol·min/mg
activity with hexanoic acid [2]: No activity

B2: Msed_1353-G424: single substitution mutant (Trp424 to Gly) of acetate/propionate synthetase Msed_1353, SEQ ID NO:18 (protein, listed as Metallosphaera sedula)
chain: MSQPENESGLPFQEKVVPELLKHRLVTPEEYLRIHKKTVENYQEYWESVAKELDWFKPWEKALDDSHPPFYKWFVGGELNASYLAVDRHANSWRRNKVAIIWEGEPWENGPKEVRKLTYLDLYREVNRAAYLLKEVYGLKKGDTIGIYLPMIPELPIFMLAAARLGVAFTVVFSGFSAQAVADRMNDADTKLLITADGGWRRGKVIPLKEIVDKALETATTVKNVLVVRRTGTEISMKPGRDAYLHDVMSKVPIKAYVEPERVKSEDPLYILYTSGTTGKPKGIIHDTGGYMTLLHNTMKLVFDIRDTDVFWCTADIGWVTGHSYIVFGPLQEGATEVMYEGALDFPEPDRWVSIIERHQVSILYTSPTAIRTFMKQGEQWIKKHDVSSVRLMHSVGEPINPEAWRWFHKLVGRGQVPFGSTWGMTETGGIMISHMPGGYLVPMKPGTNGPPLLGIETNVFDEEGKPMPEEQKGYLVITKPWPGMPLTINKDPERYVKVYWNKFPNVFYAGDYAIKDRDGYFWILGRADEVMKIAGHRIGTYELESALVQHPAIAEAAVVGVPDPVRGEVAEAFVILRSGVEPSAKLREEIVKFVRENFGPIAVFREIHFVSKLPKTRSGKIMRRVIKAVATNSPVGDVTTLEDEASVEEVKKAFQELKEQVGK
specific activity [3]: 3.6 µmol/min/mg
specific activity [4]: 3.5 µmol/min/mg
specific activity ([1]; 4HB, saturating substrate concentrations): 1.8 µmol/min/mg
substrates on which activity was shown [5]: activity on C4-C8 substrates; also recorded: activity on 3HP, 4HB, valerate, hexanoate, and even octanoate
decrease of activity of mutant versus native enzyme ([5]; on acetate and propionate): 60%

B3: E9: M. sedula succinate semialdehyde reductase, SEQ ID NO:12, in extracts of strain MW43 (protein, listed as Metallosphaera sedula)
chain: T1 sequence (A4YGN0 1-360)
half-life of E9 (E9; at 90° C, cell-free extracts): ~30 min
assay temperature of maximum E9 activity (E9; cell extracts): above 80 °C
